# Source: the nanobody polyreactivity screen of Harvey et al. (2022)
# Experiment: yeast display, Sf9 membrane polyspecificity reagent, FACS + sequencing; frameworks hold sequencing errors
# In short: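 Synthetic nanobody libraries on Saccharomyces cerevisiae BJ5465 were galactose-induced for 36–48 hours, stained 1 hour at 4 °C with 10% biotinylated, detergent-solubilized Sf9 membrane reagent and enriched on streptavidin microbeads. FACS then separated cells into low and high (top ~1%) gates by anti-HA (expression) and streptavidin (reagent binding) fluorescence. Genes were colony-PCR amplified, MiSeq 2 × 250 sequenced and CDR-length filtered. A clone's polyreactivity label is that of its gate of origin.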
row,Sequence,polyreactivity (PSR sort gate)
1,QVHLVETGGGLVQAGGSLRLSCGASGYIFSQYAMGCYRQAPGKERELVADITTSAGSTYYADSVKGRFTISRDNAKNTVYLQMNSVIPEDTAVYYCAADVYGHSYYDYDYWGQGTQVTVSS,low polyreactivity
2,QVQLVESGGGLVQAGGSLRLSCAASGRIFTWNGMGWYRQATGKERELVAAITSGGRTYADSVKGRFTISRDNAKNTVYLQMNSLKPEDTAVYYCAADVRRRYIWYDYWGQGTQVTVSS,high polyreactivity
3,QVQLVESGGGLVQAGGSLRLSCAASGSIFGIYTMGWYRQAPGKERELVAAIRRSGSTNYADSVKGRFTISRDNAKNTVYLQMNSLKPEDTAVYYCAADALSDEYDYWGQGTQVTVSS,low polyreactivity
4,QDQLVESVGGLDQAGGSLRLSCAASGRIFVHNAMGWYRQAPGKEREFVAAISLRGGSTYYADSVKGRFTISRDNAKNTVYLQMNSLKTEDTAVYYCAAVPAHFYGFDYCGQGTQVTVSS,low polyreactivity
5,QVQLVESGGGLVQAGGSLRLSCAASGRIFGYYAMGWYRQAPGKERELVAAISWTGASTYYADSVKGRFTISRDNAKNTVYLQMNSLKPEDTAVYYCAVDRGLDYYWGQGTQVTVSS,high polyreactivity
6,QVQLVESGGVLVQAGGSLRLSCAASGSIFAGNAMGWYRQEPGKERELVAAISRSGTRTYYADSVKGRFTISRDNAMNTVYLQMNSLKPEDTAVYYFAAYLPYRQGRYGYEYWGQGTQVTVSS,high polyreactivity
7,QVQLVESGGGLVQAGGSLRLSCAASGRIFGYYGMGWYRQAPGKERELVAGITSSGGSTYYADSVKGRFTISRDNAKNTVYLQMNSLKPEDTAVYYCNVRRYGSRFDYWGQGTQVTVSS,high polyreactivity
8,QVQLVESGGGLVQAGGSLRLTCGASGRIFSFYVMGWYRQAPGKERELVAAISLSGGSTYYADSVKGRFTISRDNAKNTVYLQMNSLKPEDTAVYYCAARYASPRYKSKMDYWGQGTQVTVSS,high polyreactivity
9,QVQLVESGGGLVQAGGSLRLSCSASGSIIYANAMGWYRPAPGKEREFVATITDSGAITYYADSVKGRFTISRDNAKNTVYLQMNSLKPEDTAVYYCNKDLVVYYVPTHDYDYWGQGTQVTVSS,low polyreactivity
10,QVQLVESGGGLVQAGGSLRLSCAASGRIFKTYAMGWYRQAPGKERELVAAITSGGSTYYADSVKGRFTISRDNAKNTVYLQMNSLKPEDTAVYYCNRVYRYVYSWAYNYWGQGTQVTVSS,high polyreactivity
11,QVQLVESGGGLFQAGGSLRLSCAASGSTFDTYAMGWYRQAPGKERELVAAISYRGGNTYYADSVKGRFTISRDNAKNTVYLQMNSLKPEDTAVYYCNAGVSIGRSRRYDYWGQGTQVTVSS,low polyreactivity
12,QVQLVDSGGGLVQAGGSLRLSCAASGSIFEINAMGWYRQAPGKERELVAVITDSGSTYYEDSVKGRFTISRDNAKNTVDLQMNSLKPEDTAVYYCAAEYSLLFFLMDYWGQGTQVTVSS,low polyreactivity
13,QVQLVESGGGLVQAGGSLRLSCAASGIIFRGYAMGWYRQAPGKERELVASITRRGGSTRYADSVKGRFTISRDNAKNTVYLQMNSLKPEDTAVYYCAAVRVHTDRYNYWGQGTQVTVSS,high polyreactivity
14,QVQLQESGGGLVQAGGSLRLSCAASGNIFEADIMGWNHQAQGKERELVASITDGGSTNYADSVKGRFTINRDNAKNNVYLQMNSLKPEDTAVYYCAAFAYPDIPTYFDYDIFTYWGQGTQVTVSS,high polyreactivity
15,QVQLVQSGGGLVQAGGSLRLSCAASGLIFYPYAMGWYRQAPGKERELVAAITSGDSTYYADSVKGRFTISRDNAKNTVYLQMNSLKPEDTAVYYCNAYQWGGRYWLVTYDYWGQGTQVTVSS,low polyreactivity
16,QVQLVESGGGLVQAGGSLRLSCAASGSIFQVYAMGWYSQAPGKERELVAAITKSGVSTYYADSVKGRFTISRDNAKNTVYLQMNSLKPEDTAVYYCAAPRYVRYHRGYGFDYWGQGTQVTVSS,low polyreactivity
17,QVQLVESGGGLVQAGGILRLSCAASGRIFSYYAKGWYRQAPGKERELVAAITRGGSTNYADSVKGRFTISRDNAKNSVYLQMNSLKPEDTAVYYFAVRGGYTGPTYNYWGQGTQVTVSS,high polyreactivity
18,QVQLVESGGGLVQAGGSLRLSCAASGSTFRGYAMGWYRQAPGKERELVATITSGGSTNYADSVKGRFTISRDNGKNTVYLQMNSLKPEDTAVYYCNARWVPRYWYDYWGQGTQVTVSS,high polyreactivity
19,QVQLVESGGGLVQAGGSLRLSCAASGSTFPLYAMGWYRQAPGKERELVAAITGGGGRTYYADSVKGRFTISRDNAKNTVYLQMNSLKPEDTAVYYCATDSFGYDWYWGQGTQVTVSS,low polyreactivity
20,QVQLVESGGGLVQAGGSLRLSCAASGRTFPTNAMGWYRQAPGKERELVARISTRGGSTYYADSVKGRFTISRDNAKNTVYLQMNSLKPEDTAVYYCARRYAVSNQASYYWGQGTQVTVSS,high polyreactivity
21,QVQLVESGGGLVQAGGSLRLSCAASGITFGSYAMGWYRQAPGKERELVATISKSGGSTYYADSVKGRFTISRDNEKNTVYLQMNSLKPEDTAVYYCARRYVAKRMDFWGQGTQVTVSS,high polyreactivity
22,QVQLVESGGGLVQAGGSLRLICAASGFIFSYYAMGWYRQAPGKERELVAAISKTGGNTYYADSVKGRFTISRDYAKNTVYLQMNSLKPEDTAVYYCNALRGDWRDMGYWGQGTQVTVSS,high polyreactivity

row,Sequence,polyreactivity (PSR sort gate)
1,QFQLVESGVGLVQAGGSLRFSCAASGRIFMPNAMGWYRQSPGKEREFVASISWSGGSTYYADSVKGRFTISRDNAKTTDYLQMNSLKPEDTAVYYCNARYGKRYYYWGQGTQVTVSS,low polyreactivity
2,QVQLVESGGGLVQAAGSLRLSCDASGRIFAYYAMGWYRQAPGKERELVAAISRSGVSTYYADSVKGRFTISRDNAKNTVYLQMNSLKPEDTAVYYCAARWRSGFTSGDYWGQGTQVTVSS,low polyreactivity
3,QVQLVESGGGLVQAGGRLRLSCAASGGTFYLNAMGWYRQAPGKERELVAAISGSGTSTYYADSVKGRFTISRDNAKNTVYLQMNSLKPEDTAVYYCAADGTYFYIYLGDRFDYWGQGTQVTVSS,low polyreactivity
4,QVQLVESGGGLVQAGGSLRLSCAASGSTFVIYGKGWYRQAPGKERELVASISGSGGSTFYADSVKGRFTISRDNAKITVYLEMNSRKPEDTAVYYCAAAVGVGRSGGTYDYWGQGTQVTVSS,low polyreactivity
5,QVQLVESGGGLVQAGGSLRLSCAASGRTFEHYAMGWYRQAPGKERELVAAITWSGVSTYYADSVKGRFTISRDNAKNTVYVQMNSLKPEDTAVYYCAANWLGYGFDYWGQGTQVTVSS,low polyreactivity
6,QVQLVESVGGLVQAGGSLRLSCAASGRTLGKYAMGWYIQAPGKERELVAAIRWTGTSTYYADSVKGRFTISRDNAKNTVYLQMNSLKPEDTAVYYCAKGTVHSRPDFGRGWYRWDDYWGQGTQVTVSS,high polyreactivity
7,QVQLVESGGGLVQAGGSLRLSCAASGFTFRSYAMGWYRQAPGKERELVADISIRGGGTYYADTVKGRFTISRDNAKNTVYLQMNSLKPEDTAVYYCAAERYKPFLWPRYDYWGQGTQVTVSS,low polyreactivity
8,QVQLVESGGGLVQAGGSLRLSCAASGSTFYYNGMGWYRQAPGKERELVAAITWTGDSTYYADSVKGRFTISRDNAKNTVYLQMNCLKPEDTAVYYCAAYYRKTGYDYWGQGTQVTVSS,high polyreactivity
9,QVQLVESGGGLVQAGGSLRLSCAASGSIFWYYAMGWYRQAPGKERELDASITRGGSTKYADSVKGRFTISLDNAKNPVYLQMNSLKPEDTAVYYCATTYRLYRVNYDYYWGQGTQVSVSS,high polyreactivity
10,QVQLVESGGGLVQAGGSLRISCAASGYIFFGNAMGWYRQAPGKERELVAAIRGRGTSTYYADSVKGRFTISRDNAKNTVYLQMNSLKPEDTAVYYFAADVVRSNFYGTFLYDYDYWGQCTQVTVSS,low polyreactivity
11,QVQLVESGGGLVQAGGSLRLSCAAYGTIFFSYSMGWYRQAPGKERELVADIRSSDDDTYYADSVKGRFTISRDNAKNTGYLQMNSMKPEDTAVYYCNADFGYWWDGRRYDYWGQGTQVTVSS,low polyreactivity
12,QVQLVESAGGLVQAGGSLRLSCAASGYTFYRNAMGCYRQAPGKERELVAAISWRGGSTYYADSVKGRFTISRDNAKNTVYLQMNSLKPEDTAVYYCAAYFSYGGSTTGEEYWGQGTQVTVSS,high polyreactivity
13,QVQLVESGGGLVQAVGSLRLSCAASGRTFNRYGMGWYRQAPAKEMELVAAIRWSGTTTYYADSVKGRFTISRDNAKNTVYLQMNSQKPEDTAVYYCAAGTNVGRYGYYYWGQGTQVTVSS,high polyreactivity
14,QVQLVESGGGLVQAGGSLRLSCAASGFIFAGYTMGWSRPAHGKERELVAAIRSSGGRTYYADSVKGRFTISRDNAKNTVYLQMYSMKPEDTAVDYCNAVVDRLIFWQFDYWGQGTQVTVSS,high polyreactivity
15,QVQLVESGGGLVQAGGSLRLSCAASGSIFAYYAMGWYRQAPGKEREIVAAISKRGGRTYYADSVKGRFTISRDNAKNTVYLQMNSLKPEDTAVYYCATVGVRTNLNRYGYWGQGTQVTVSS,high polyreactivity
16,QVQLVESGGGIVQAGGSLRLSCAASGFKFKFYVMGWYRQAPGKERELVAAISRNSVSTYYADSVKGRFTISRDNAKNTVYLQMNSLKPEDTAVYYCAAKGPRQYNHWGQGTQVTVSS,high polyreactivity
17,QVQLVESGGGLVQAGGSLRLSCAASGFIFGYNAMDWYRQAPGKERELVAAITSGGSTNYADSVKGRFTISRDNAKNTVYLQMNSLKPEDTAVYYCNTVPGDFRSITDDDWGQGTQVTVSS,low polyreactivity
18,QVQLVESGGGLVQAGGSLRLSCAASGYTFYINTMGWYRQAPGKEREFVAAITWSGGSTYYADSVKGRFTISRDNAKNTVYLQMNSLIPEDTAVYYCAADLYVGDMDYWGQGTQVTVSS,low polyreactivity
19,QVQLVASGGGLVQAGGSLRFSCAASGRPLSYYAMGWYREAPGKERELVAAISRRGGSTYYADSVKGRFTISRDNAQNTVYIQMNSLKPKDTAVYYCAAETFDYADYIANGSGEYDYWGQGTQVTVSS,high polyreactivity
20,QVQLVESGGGLVQAGGSLRLSCAASGITFSGNAMGWYRQAPGKERELVAAISGGGSTNYADSVKGRFTISRDNAKNTVYLQMNSLKPEDTAVYYCAAEIIFWYLYRDYYYWGQGTQVTVSS,low polyreactivity
21,QVQLVDSGGGLVQAGGSLRLSCAASGRTFSSYAMGSYRQAPGKERELVAAINWSGASTYYADSVKGRFTISRDYAKNTVYLQLNSLKPEDTAVYDCAKSLYVGKFWQIRSSVDYWGQGTQVTVSS,low polyreactivity
